For test [1], the target named is H1N1特异性的表位肽 (SEQ ID NO:4) (Influenza A virus H1N1). Nature of the test: indirect ELISA, titre of purified ascites antibody. Background: An ELISA detects its analyte on a solid surface through an enzyme-linked reagent.
Test [2] has the same target.

B1: 3E6单克隆抗体 (antibody, V domains shown)
VH: EVQLEESGTELARPGASVKLALKASGYIFSSYSGQWIKQRPGAGLELIGYPYPGWIDTRYTQKLTGKATLTADKSSSTLYMQLSSLASEDSAVAYCAGSYFSSDAWGLGTTLAVSS
VL: DIVLTQSPALMAASAGEKVTITCAVSQSIQSGYLAWYQQKSGISPKPWIYDTSNQAGGVPARFSGAGSGTSYSLTITSMEAEDAATYYCAQGTTSPLSFGAGTKLELK
Usually Kd stands for a measure of binding affinity in units of concentration. In test [1], B1 showed an OD492 at dilution 1:1000 of 4.91 OD492, an OD492 at dilution 1:10000 of 1.89 OD492, an OD492 at dilution 1:100000 of 0.455 OD492 and an OD492 at dilution 1:1000000 of 0.121 OD492. The OD492 at dilution 1:10000000 in test [1] was found to be 0.0632 OD492. Moreover, the Kd in test [2] came to 0.48 nM.

These data come from CN112063765A.
